Laboratory results published in article PMC8494132, “Human Three-Finger Protein Lypd6 Is a Negative Modulator of the Cholinergic System in the Brain” (Frontiers in Cell and Developmental Biology, 2021).

What was measured:
[1] = target: T1, α7-nAChR (native, rat hippocampal CA1 interneurons) (Rattus norvegicus, UniProt Q05941); assay: whole-cell patch clamp, hippocampal slices; settings: agonist; 1 mM choline pulses, 22°C, -60 mV, pH 7.4
T1 construct: gene Chrna7; native receptor in CA1 stratum radiatum interneurons of hippocampal slices

LRP6 (Homo sapiens) = LRP6 (Homo sapiens) (UniProt O75581); settings: cited from earlier work
[2] = target: human homomeric α7 nicotinic acetylcholine receptor expressed in X. laevis oocytes (human) (UniProt P36544)
[3] = target: human α3β4 nicotinic acetylcholine receptor expressed in X. laevis oocytes (human) (UniProt P32297)
[4] = target: native α7 nicotinic acetylcholine receptor in interneurons of CA1 stratum radiatum, rat hippocampal slices (rat (endogenous in hippocampal slices)) (UniProt Q05941)
[5] = target: human homomeric α7 nicotinic acetylcholine receptor expressed in X. laevis oocytes (human) (UniProt P36544); remark: listed apart in the source

Chain of human homomeric α7 nicotinic acetylcholine receptor expressed in X. laevis oocytes (human) (P36544 23-502): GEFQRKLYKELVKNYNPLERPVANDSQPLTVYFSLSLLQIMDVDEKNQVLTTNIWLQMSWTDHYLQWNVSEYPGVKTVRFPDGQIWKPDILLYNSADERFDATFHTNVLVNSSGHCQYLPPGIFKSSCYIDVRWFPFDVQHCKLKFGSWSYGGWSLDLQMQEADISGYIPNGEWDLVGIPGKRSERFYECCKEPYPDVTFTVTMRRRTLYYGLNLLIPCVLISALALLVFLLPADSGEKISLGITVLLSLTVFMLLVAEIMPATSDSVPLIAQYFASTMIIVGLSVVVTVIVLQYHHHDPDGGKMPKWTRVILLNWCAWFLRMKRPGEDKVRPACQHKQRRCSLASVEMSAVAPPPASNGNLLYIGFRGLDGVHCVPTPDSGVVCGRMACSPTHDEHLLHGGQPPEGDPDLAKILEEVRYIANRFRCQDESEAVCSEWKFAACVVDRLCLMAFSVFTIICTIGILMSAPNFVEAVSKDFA
Chain of human α3β4 nicotinic acetylcholine receptor expressed in X. laevis oocytes (human) (P32297 32-505, chain 1 of 2): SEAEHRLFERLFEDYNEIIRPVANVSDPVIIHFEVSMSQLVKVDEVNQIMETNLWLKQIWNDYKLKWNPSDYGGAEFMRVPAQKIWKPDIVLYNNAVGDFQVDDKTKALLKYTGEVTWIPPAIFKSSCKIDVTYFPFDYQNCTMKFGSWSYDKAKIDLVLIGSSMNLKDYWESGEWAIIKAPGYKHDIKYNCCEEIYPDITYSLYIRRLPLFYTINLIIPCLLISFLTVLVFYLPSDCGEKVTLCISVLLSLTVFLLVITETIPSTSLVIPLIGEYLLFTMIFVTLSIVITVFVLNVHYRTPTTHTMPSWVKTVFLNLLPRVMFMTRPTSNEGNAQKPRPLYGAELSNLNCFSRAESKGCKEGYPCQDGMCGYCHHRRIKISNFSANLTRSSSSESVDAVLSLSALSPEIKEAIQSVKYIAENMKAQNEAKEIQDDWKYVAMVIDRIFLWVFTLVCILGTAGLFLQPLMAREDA
Chain of human α3β4 nicotinic acetylcholine receptor expressed in X. laevis oocytes (human) (P30926 22-498, chain 2 of 2, further chain): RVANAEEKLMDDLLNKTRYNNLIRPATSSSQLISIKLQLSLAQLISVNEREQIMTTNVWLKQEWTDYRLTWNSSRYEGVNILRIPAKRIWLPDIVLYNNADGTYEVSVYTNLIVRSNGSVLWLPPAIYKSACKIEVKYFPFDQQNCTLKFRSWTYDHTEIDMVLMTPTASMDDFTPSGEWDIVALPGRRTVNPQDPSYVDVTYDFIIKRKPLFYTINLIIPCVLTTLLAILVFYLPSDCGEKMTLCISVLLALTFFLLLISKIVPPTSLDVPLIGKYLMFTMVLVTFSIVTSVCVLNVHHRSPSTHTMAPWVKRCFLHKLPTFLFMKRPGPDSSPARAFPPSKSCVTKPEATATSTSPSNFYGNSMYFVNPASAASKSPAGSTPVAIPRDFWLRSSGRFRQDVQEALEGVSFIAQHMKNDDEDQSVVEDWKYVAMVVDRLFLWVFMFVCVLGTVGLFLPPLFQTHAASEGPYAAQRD
Chain of native α7 nicotinic acetylcholine receptor in interneurons of CA1 stratum radiatum, rat hippocampal slices (rat (endogenous in hippocampal slices)) (Q05941 23-502): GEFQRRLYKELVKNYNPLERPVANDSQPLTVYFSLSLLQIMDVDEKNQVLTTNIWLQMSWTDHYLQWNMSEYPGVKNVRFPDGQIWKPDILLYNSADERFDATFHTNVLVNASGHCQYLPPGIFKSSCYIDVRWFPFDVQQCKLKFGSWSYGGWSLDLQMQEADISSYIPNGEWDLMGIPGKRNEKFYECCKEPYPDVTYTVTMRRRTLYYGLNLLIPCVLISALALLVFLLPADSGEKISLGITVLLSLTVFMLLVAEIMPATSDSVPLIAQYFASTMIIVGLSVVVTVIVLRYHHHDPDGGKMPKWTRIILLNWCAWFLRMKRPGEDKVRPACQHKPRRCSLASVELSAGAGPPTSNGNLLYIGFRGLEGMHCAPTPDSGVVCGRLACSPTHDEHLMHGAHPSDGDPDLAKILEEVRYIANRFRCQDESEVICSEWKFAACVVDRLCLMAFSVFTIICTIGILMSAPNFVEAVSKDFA
T1 sequence (Q05941 23-502): as above
Chain of LRP6 (Homo sapiens) (O75581 20-1370): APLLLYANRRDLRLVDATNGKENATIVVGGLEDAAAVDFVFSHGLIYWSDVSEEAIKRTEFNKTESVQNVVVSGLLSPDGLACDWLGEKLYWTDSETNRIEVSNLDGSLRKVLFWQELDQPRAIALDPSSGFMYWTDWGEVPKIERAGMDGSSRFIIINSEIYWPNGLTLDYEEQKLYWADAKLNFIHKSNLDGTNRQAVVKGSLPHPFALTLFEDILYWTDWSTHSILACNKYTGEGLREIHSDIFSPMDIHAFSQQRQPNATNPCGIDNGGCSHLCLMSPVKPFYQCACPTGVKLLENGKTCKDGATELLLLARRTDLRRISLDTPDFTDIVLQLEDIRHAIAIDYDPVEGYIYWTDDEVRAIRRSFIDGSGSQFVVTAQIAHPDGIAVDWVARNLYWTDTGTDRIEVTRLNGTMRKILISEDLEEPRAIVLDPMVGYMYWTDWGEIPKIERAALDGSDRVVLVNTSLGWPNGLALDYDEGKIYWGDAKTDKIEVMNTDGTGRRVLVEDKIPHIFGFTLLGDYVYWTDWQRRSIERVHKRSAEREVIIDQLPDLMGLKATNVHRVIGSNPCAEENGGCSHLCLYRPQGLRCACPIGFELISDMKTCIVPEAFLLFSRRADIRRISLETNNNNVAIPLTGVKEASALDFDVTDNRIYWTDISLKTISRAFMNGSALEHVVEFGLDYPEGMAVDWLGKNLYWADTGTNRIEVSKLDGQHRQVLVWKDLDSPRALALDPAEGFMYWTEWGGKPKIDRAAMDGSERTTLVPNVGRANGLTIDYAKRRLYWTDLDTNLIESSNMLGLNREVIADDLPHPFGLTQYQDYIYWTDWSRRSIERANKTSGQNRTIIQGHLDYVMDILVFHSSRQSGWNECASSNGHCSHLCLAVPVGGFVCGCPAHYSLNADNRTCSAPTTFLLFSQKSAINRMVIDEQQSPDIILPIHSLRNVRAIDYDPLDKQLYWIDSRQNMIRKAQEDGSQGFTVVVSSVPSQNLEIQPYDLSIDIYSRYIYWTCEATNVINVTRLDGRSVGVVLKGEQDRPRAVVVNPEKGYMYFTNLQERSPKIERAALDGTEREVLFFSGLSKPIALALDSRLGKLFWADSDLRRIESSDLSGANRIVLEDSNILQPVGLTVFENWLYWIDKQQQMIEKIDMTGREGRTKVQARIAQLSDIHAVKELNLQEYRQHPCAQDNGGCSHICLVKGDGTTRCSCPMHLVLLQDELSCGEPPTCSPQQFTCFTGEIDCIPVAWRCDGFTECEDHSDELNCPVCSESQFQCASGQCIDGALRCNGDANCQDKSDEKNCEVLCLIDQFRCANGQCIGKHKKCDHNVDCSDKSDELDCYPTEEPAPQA

Molecule: C[N+](C)(C)CCO [Choline]
- whole-cell patch clamp, hippocampal slices [1]: Application of choline induced the robust currents in the interneurons of CA1 str. radiatum

Molecule: Lypd6 (from UniProt Q86Y78)
- Kd (LRP6 (Homo sapiens)): 1 µM

Molecule: recombinant water-soluble variant of human Lypd6 containing the isolated three-finger LU-domain (ws-Lypd6) (domain or fragment)
- IC50 of inhibition of ACh-evoked currents (100 μM ACh, 15 s pre-incubation), two-electrode voltage clamp, X. laevis oocytes [2]: 10.9 µM
- IC50 of inhibition of ACh-evoked currents (100 μM ACh, 5 min pre-incubation), two-electrode voltage clamp, X. laevis oocytes [3]: 34.9 µM
- amplitude of choline-evoked currents (1 mM choline) with 1 μM ws-Lypd6, whole-cell patch clamp in rat hippocampal slices with 8 μM DhβE; reversed by washout (% of the control value) [4]: 72

B1: isolated water-soluble LU-domain of Lypd6b (ws-Lypd6b) (domain or fragment)
chain: FKCFTCENAGDNYNCNRWAEDKWCPQNTQYCLTVHHFTSHGRSTSITKKCASRSECHFVGCHHSRDSEHTECRSCCEGMICNVELPTNHTNAVFA
- reduction of the ACh-evoked current amplitude by 30 μM ws-Lypd6b (100 μM ACh), two-electrode voltage clamp, X. laevis oocytes [5]: 20%
